Measured values reported in publication PMC10920880, “RNA compaction and iterative scanning for small RNA targets by the Hfq chaperone”.

How the values were obtained:
[1] = target: T1, Hfq (Escherichia coli K12, UniProt P0A6X3 1-102); assay: smFRET; 5 nM sRNA (N13)-Hfq; rates 0.05 s-1 (49%) and 0.01 s-1; lifetime >~112 s; smFRET: 10 mM Tris-HCl pH 7.5, 50 mM NaCl, 50 mM KCl, 4 mM Trolox, 0.01% Nikkol, 0.8% glucose, RNasin, oxygen scavenger; EMSA: 1x TNK, 5% glycerol, 15 min RT, native 8% PAGE 1x TBE 4 C; conditions: protein: recombinant; tags: none (untagged); chain copies: 6; label: tether 5' biotin, 3' Cy5; RNA 3' extension paired to DNA tether; 5' hairpin
[2] = target: T1, Hfq; assay: smFRET; sRNA (N13)-Hfq; lifetime similar to (AAC)4; smFRET: 10 mM Tris-HCl pH 7.5, 50 mM NaCl, 50 mM KCl, 4 mM Trolox, 0.01% Nikkol, 0.8% glucose, RNasin, oxygen scavenger; EMSA: 1x TNK, 5% glycerol, 15 min RT, native 8% PAGE 1x TBE 4 C; conditions: protein: recombinant; tags: none (untagged); chain copies: 6; label: tether 5' biotin, 3' Cy5; RNA 3' extension paired to DNA tether; 5' hairpin
[3] = target: T1, Hfq; assay: smFRET; sRNA (N13)-Hfq; prefers S6 site; smFRET: 10 mM Tris-HCl pH 7.5, 50 mM NaCl, 50 mM KCl, 4 mM Trolox, 0.01% Nikkol, 0.8% glucose, RNasin, oxygen scavenger; EMSA: 1x TNK, 5% glycerol, 15 min RT, native 8% PAGE 1x TBE 4 C; conditions: protein: recombinant; tags: none (untagged); chain copies: 6; label: tether 5' biotin, 3' Cy5; RNA 3' extension paired to DNA tether; 5' hairpin
[4] = target: T1, Hfq; assay: smFRET; sRNA (N13)-Hfq; 39% dynamic; smFRET: 10 mM Tris-HCl pH 7.5, 50 mM NaCl, 50 mM KCl, 4 mM Trolox, 0.01% Nikkol, 0.8% glucose, RNasin, oxygen scavenger; EMSA: 1x TNK, 5% glycerol, 15 min RT, native 8% PAGE 1x TBE 4 C; conditions: protein: recombinant; tags: none (untagged); chain copies: 6; label: tether 5' biotin, 3' Cy5; RNA 3' extension paired to DNA tether; 5' hairpin
[5] = target: T1, Hfq; assay: smFRET; sRNA (N13)-Hfq; 57% dynamic; smFRET: 10 mM Tris-HCl pH 7.5, 50 mM NaCl, 50 mM KCl, 4 mM Trolox, 0.01% Nikkol, 0.8% glucose, RNasin, oxygen scavenger; EMSA: 1x TNK, 5% glycerol, 15 min RT, native 8% PAGE 1x TBE 4 C; conditions: protein: recombinant; tags: none (untagged); chain copies: 6; label: tether 5' biotin, 3' Cy5; RNA 3' extension paired to DNA tether; 5' hairpin; spacer stem-loop
[6] = target: T1, Hfq; assay: smFRET; sRNA (N13)-Hfq; smFRET: 10 mM Tris-HCl pH 7.5, 50 mM NaCl, 50 mM KCl, 4 mM Trolox, 0.01% Nikkol, 0.8% glucose, RNasin, oxygen scavenger; EMSA: 1x TNK, 5% glycerol, 15 min RT, native 8% PAGE 1x TBE 4 C; conditions: protein: recombinant; tags: none (untagged); chain copies: 6; label: tether 5' biotin, 3' Cy5; RNA 3' extension paired to DNA tether; 5' hairpin
[7] = target: T1, Hfq; assay: smFRET; sRNA (N13)-Hfq; 23% dynamic; smFRET: 10 mM Tris-HCl pH 7.5, 50 mM NaCl, 50 mM KCl, 4 mM Trolox, 0.01% Nikkol, 0.8% glucose, RNasin, oxygen scavenger; EMSA: 1x TNK, 5% glycerol, 15 min RT, native 8% PAGE 1x TBE 4 C; conditions: protein: recombinant; tags: none (untagged); chain copies: 6; label: tether 5' biotin, 3' Cy5; RNA 3' extension paired to DNA tether; 5' hairpin

B1: (AAC)4-N0-S6 mRNA on DNA tether (mixed)
RNA: GGACUCUAUCGAGUCCAACAACAACAACGACCUCGCGCCCAGGACGACACACUUUGGACAGGACACACAGGACACAGG
DNA: CCTGTGTCCTGTGTGTCCTGTCCAAAGTGTGTCGTCC
binding result [1]: binds

B2: (AAC)6-N35-S6 mRNA on DNA tether (mixed)
RNA: GGACUCUAUCGAGUCCAACAACAACAACAACAACCCCUGCAUCACCUAAACUUUACUCUACCAUCACCAGACCUCGCGCCCAGGACGACACACUUUGGACAGGACACACAGGACACAGG
DNA: CCTGTGTCCTGTGTGTCCTGTCCAAAGTGTGTCGTCC
binding result [2]: binds

B3: (AAC)4-S6-N15-S4 tandem mRNA on DNA tether (mixed)
RNA: GGACUCUAUCGAGUCCAACAACAACAACCGACCUCUCUACCAUCACCACUCCUCGCGCCCAGGACGACACACUUUGGACAGGACACACAGGACACAGG
DNA: CCTGTGTCCTGTGTGTCCTGTCCAAAGTGTGTCGTCC
binding result [3]: binds

B4: (AAC)4-S6-N13-S6 tandem mRNA on DNA tether (mixed)
RNA: GGACUCUAUCGAGUCCAACAACAACAACAGACCUCUCUACCAUCACCAGACCUCGCGCCCAGGACGACACACUUUGGACAGGACACACAGGACACAGG
DNA: CCTGTGTCCTGTGTGTCCTGTCCAAAGTGTGTCGTCC
binding result [4]: binds

B5: (AAC)4-S6-N13-S6_SL tandem mRNA on DNA tether (mixed)
RNA: GGACUCUAUCGAGUCCAACAACAACAACAGACCUCUCUACCAUCACCGCAGCAUACUGCUGCAGACCUCGCGCCCAGGACGACACACUUUGGACAGGACACACAGGACACAGG
DNA: CCTGTGTCCTGTGTGTCCTGTCCAAAGTGTGTCGTCC
binding result [5]: binds

B6: (AAC)4-N15-S6 mRNA on DNA tether (mixed)
RNA: GGACUCUAUCGAGUCCAACAACAACAACUCUACCAUCACCUAAGACCUCGCGCCCAGGACGACACACUUUGGACAGGACACACAGGACACAGG
DNA: CCTGTGTCCTGTGTGTCCTGTCCAAAGTGTGTCGTCC
binding result [6]: binds

B7: (AAC)4-S4-N13-S6 tandem mRNA on DNA tether (mixed)
RNA: GGACUCUAUCGAGUCCAACAACAACAACACUCCUCUCUACCAUCACCCGACCUCGCGCCCAGGACGACACACUUUGGACAGGACACACAGGACACAGG
DNA: CCTGTGTCCTGTGTGTCCTGTCCAAAGTGTGTCGTCC
binding result [3]: binds

B8: (AAC)4-N35-S6 mRNA on DNA tether (mixed)
RNA: GGACUCUAUCGAGUCCAACAACAACAACUCUACCAUCACCUAAACUUUACUCUACCAUCACCAGACCUCGCGCCCAGGACGACACACUUUGGACAGGACACACAGGACACAGG
DNA: CCTGTGTCCTGTGTGTCCTGTCCAAAGTGTGTCGTCC
binding result [6]: binds

B9: (AAC)4-S6-N35-S6 tandem mRNA on DNA tether (mixed)
RNA: GGACUCUAUCGAGUCCAACAACAACAACAGACCUCUCUACCAUCACCUAAACUUUACUCUACCAUCACCAGACCUCGCGCCCAGGACGACACACUUUGGACAGGACACACAGGACACAGG
DNA: CCTGTGTCCTGTGTGTCCTGTCCAAAGTGTGTCGTCC
binding result [7]: binds
